In the nanobody polyreactivity screen of Harvey et al. (2022):

assay: yeast display, Sf9 membrane polyspecificity reagent, FACS + sequencing; frameworks hold sequencing errors
How it was run: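 Using colony PCR, genes from sorted yeast display clones were amplified, then sequenced on MiSeq at 2 × 250 and filtered by CDR length. The clones had been stained with 10% biotinylated, detergent-solubilized Sf9 membrane reagent for 1 hour at 4 °C and sorted by FACS into low and high (top ~1%) gates on anti-HA and streptavidin fluorescence. Polyreactivity labels come from the gate of origin.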

Sequence | polyreactivity (PSR sort gate)
QVQLVESVGALVQAGGSLRLSCAASGSTFRRNAMGWYRQAPGKERELVATITTRGGSTYYADSVKGRFTLSRDNAKNTVNLQMNSLKPEDTAVYYCAADRRSGYSRSKYGRGDYWGQGTQVTVSS | high polyreactivity
QVQLVESGGGLVQAGGSLRLSCAASGNIFSSNAMGWYRQAPGKERELVAAISASGGNTYYADSVKGRFTISRDNAKNTVYLQINSLKPEDTAVYYCNAYRGGYLRRGYYYWGQGSQVTVSS | high polyreactivity
QVQLVESGGGLVQAGGSLRLSCAASGRTFSGYAMGWYRQAPGKERELVAAITRRGGTTYYADSVKGRFTISRDNAKNTVYLQMNSLKPEDTAVYYCAAAKPRVISQNIIYDYWGQGTQVTVSS | high polyreactivity
QVQLVESGGGLVQAGGSLRLSCAASGRIFYDNTMGWYRQAPGKERELVAAISVSGGRTYYADSVKGRFTISRDNAKNTVYLQLNSLKPEDTAVYYCAADRGGEYWGQGTQVTVSS | high polyreactivity
QVQLVESGGGLVQAGGSLRLSCAASGFTFFYVYTMGWYRQAPGKEREFVAAIDWTGRTYYADSVKGRFTISRDNAKNTVYLQMNSLKPEDTAVYYCNADVAPGIFYGYDSWGQGTQVTVSS | low polyreactivity
QVQLVESGGGLVQAGGSLRLICAASGFTFLTNAMGWYRQAPGKERELVAAISSGGNTNYADSVKGRFTISRDNAKNTVYLQMNSLKPEDTAVYYCAADNDYLSSQVSYYYWGHGTQVTVSS | low polyreactivity
QVQLVESGGGLVQAGGSLRLSCAASGRTFLLNAMGWYRQAPGKERELVAAMTRSGVITYYADSVKGRFTISRDNAKNTVYLQMNSLKPEDTAVYYCAARRDARSTEYGYWGQGTQVTVSS | high polyreactivity
QVQLVESGGGLVQAGGSLRLSCAASGSTVPQYTMGWYRQAPGKERELVAAITKSGGSTYYADSVKGRFTISRDNAKNTVYLQMNSLKPEDTAVYYCNRRWGWRLYDYWGQGTQVTVSS | high polyreactivity
QVQLVESGGGLVQAGGSLRLSCAASGRIFRGYAMGWYRQPPGTERELVAAITKRGGSTYYADSVKGRFTISRDNEKNTVSLQMNSLKPEDTAVYYCAAYLPGWELREYGYWGQGTQVTVSS | high polyreactivity
QVQLVESGGGLVQAGGSLRLSCAASGSTFRYYALGWYRQAPGKERELVAAINRSGGSTYYADSVKGRFTISRDNAKNTVDLQMNSLKQEETAVYYCAAPWARHYSNPDDYWGQGTQVTVSS | high polyreactivity
QVQLVESGGGLVQAGGSLRLSCAASGRTFRLYAMGWYRQAPGKERELVAAISYSDGRTYYADSVKGRFTISRDNAKNTVYLQMNSLKPEDTAVYYCAAETLYVSPYFYVVQYDYWGQGTQVTVSS | high polyreactivity
QFQLVESGGGLVQAGGSLRLSCAASGRIFASIGMGWYRQAPGKEREFVAAINRSGGSTYYADSVKGRFTISRVNAKNSVYLQMNSLKPEDTAVYYCNKDYLYSYLWGWKVYSYDYWGQGTQVTVSS | low polyreactivity
QVQLVESGGGLVQAGGSLRLSCAASGRTFWLYAMGWYRQAPGKERELVARITRRDGSTNYADSVKGRFTISRDNAKNTVYLQMNSLKPEDTAVYYCAAGRFRYPPGAYDYWGQGIQVTVSS | high polyreactivity
QVQLVESGGGLVQAGGSLRLSCAASGSTFASNMGWYRQAPGKERELVAGIRSSGSTYYADSVKGRFTISRDNAKNTVYLQMNSLKPEDTAVYSCNKGDYRTYPYDYWGQGTQVTVSS | low polyreactivity
QVQLVESAGGLVQAGGSLRLSCPASGGISALYAMGWYRQAPGKERELVAAISASGGSTYYADSVKGRFTISRDNAKNTVYLQMNSLKPEDTAVYYCNVAVLTSDIYSTTIYYYGIYDYWGQGTQVTVSS | high polyreactivity
QVQLVESGGGLVQAGGSLRLSCAASGSIFIFNAMGWYRQAPGKEREFVARIRRDSSTYYADSVKGRFTISRDNAKNTVYLQMNSLKPEDTAVYYCADKRVYRRVELNSWGQGTQVTVSS | low polyreactivity
QVQLVESGGGLVQAGGSLRLSFAASGRTFDRYDMGWYRQAPGKERELVATISSSGGSTYYADSVKGRFTISRDNAKNTVYLQMNSLKPEDTAVYYCAADPSGDYWGQGTQVTVSS | low polyreactivity
QVQLVESGGGLVQAGGSLRLSCAASGRTFYRSVMGWYRQAPGKERELVAAITPGGSTYADSVKGRFTISRDNAKKTVSLQMNSLKPEDTAVNYCNKRKASSSGYNYWGQVTQVTVSS | low polyreactivity
QDHLVESGGGLVEARGSLRLSCAASGFIFRGYAMGWYRQAPGKERELVAAINSGGSTNYADSVKGRFTISRDNAKNTVYLQMNSLKPEDSAVYYCAARWRSWRYKDDYWGQGSQVTVSS | high polyreactivity
QVQLVESGGGLVQAGGSLRLSCAASGRTSAIYDMGWYRQAPGKERDLVAAIDYSDGSTYYADSVKGRFTISRDNAKYTVYLQMNSLKPEDTAVYYCAADYDAIYLWWGYDYWGQGTQLTVSS | low polyreactivity
QVQLVESGGGLVQAGGSLRLSCAASGSIFRYNTMGWYRQAPGKERELVAAITSSGGRTYYADSVKGRFTISRDNAKNTVYLQMNSLKPEDTAVYYCAARRSFYGRVYDDQYDYWGQGTQVTVSS | high polyreactivity
QVQLVESGGGLVQAGGSLRLSCAASGIIFYVNAMGWYRQAPGKERELVAAITFGGDSTYYADSVKGRFTISRDNAKNTVYLQMNSLKPEDTAVYYCAADYVALYYWYDYWGQGTQVTVSS | low polyreactivity
QVQLVESGGGLVQAGGSLRLTCAASGRIFDYNDMGWYRQAPGKERELVAAITSDGSTNYADSVKGRFTISRDNAKNTVFLQMNSLKPEDPAVYYCAADTGETFDSIYDYWGQGTQVTVSS | low polyreactivity
QVQLVESGGGLVQVGGSLRLSCAASGFIFTHYAMGWYRQAPGKERELVAAISVDGGDTYYADSVKGRFTISRDNAKNTVYLQMNSLKPEDTAVYYYWGQGTQVTVSS | low polyreactivity
QVQLVESWGGLVQAGGSLRLSCAASGITFFTYAMGWYRQAPGKERELVAGISKTGGRSYYADSVKGRFTISRDNSKNTVYLQMNSLKPDDTAVYFCAAYFRSDYGYWGQGNQVTVSS | high polyreactivity
QVQLVESGGGLVQAGGSLRLSCAASGRTCRHNAMGWYRQAPGTERELVAAISSSGTNTHYADSVKGRFTISRDNAKNTVYLQMNSLKPEDTAVYYCAADRWGARRKQYHENGYWAQGTQVTVSS | high polyreactivity
QVQLVESGGGLVQARGSLRLSCAASGFILTYYAMGRYRQAPGKEMELVATISSGGGSTYYADSVKGRFTISRDNAKNTVYLQMNSLKPEDTAVYFCAASRRMTGIRYINRYEYWGQGTQVTVSS | high polyreactivity
QVQLQESGGGQVHAGGSLRLSCAASGTIFLYAYMGWYRQAPGKERELVAAIDVGTTTNYADSVKGRFTISRDNAKNTVYLQMNSLKPEDTAVYYCAANLGYLDDLGYWGQGTQETVSS | low polyreactivity
QVQLVESGGGLVQAGGSHRLSCAASGFTFVYYAMGWYRQAPGKERELVAAISARTSGTYYADSVKGRFTISRDNAKNTVYLQMNSLTPEDTAVYYCAAGYSYVYWSESAYDYWGQGTQVTVSS | low polyreactivity
QVQLVESGGGLVQAGGSLRLSCAASGRTFFYYAMGWYRQAPGKERELVAAISGRGGRTYYADSVKGRFTISRDNAKNTVYLQMNSLKPEDTAVYYCNTRGTRIASGHYYWGQGTQVTVSS | high polyreactivity
